Test results as given in EP4717714A1 (Shanghai Junshi Biosciences Co., Ltd., dated 2026).

T1: Recombinant human VEGFA (Sino Biological, catalog number 11066-HNAB) (human)
T1 chain: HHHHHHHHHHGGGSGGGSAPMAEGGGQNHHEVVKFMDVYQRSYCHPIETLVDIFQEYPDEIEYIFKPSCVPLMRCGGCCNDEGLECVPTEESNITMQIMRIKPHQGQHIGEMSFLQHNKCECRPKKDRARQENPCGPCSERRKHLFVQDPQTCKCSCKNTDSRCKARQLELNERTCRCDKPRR


Experiments:
[1] = biological target: T1, Recombinant human VEGFA (Sino …); assay: cell-based or functional assay
[2] = biological target: Human PD-1 on the cell surface (Jurkat PD-1 effector cells, Promega); CD4 T cells in the mixed lymphocyte … (human, UniProt Q15116 25-288); assay: cell-based or functional assay
[3] = biological target: T1, Recombinant human VEGFA (Sino …); assay: BLI (Octet RED96e), told of the group
[4] = biological target: T2, Recombinant human PD-1 (prepared by Suzhou Junmeng Biopharm Co., Ltd. according to the sequence of NCBI … (human, UniProt Q15116 25-170, limits assumed)); assay: indirect ELISA, human PD-1 coated at 0.3 µg/mL (FIG. 6a)
T2 construct: Soluble recombinant protein used in BLI and coated in ELISA; also called antigen PD-1

[5] = biological target: T1, Recombinant human VEGFA (Sino …); assay: indirect ELISA, human VEGFA coated at 0.5 µg/mL (FIG. 7a)
[6] = biological target: T1, Recombinant human VEGFA (Sino …); assay: indirect ELISA on coated human VEGFA, relative to Avastin control
[7] = biological target: T2, Recombinant human PD-1 (prepared by …); assay: indirect ELISA on coated human PD-1; stability sample, 5°C, 0 week
[8] = biological target: T2, Recombinant human PD-1 (prepared by …); assay: indirect ELISA on coated human PD-1; stability sample, 5°C, 4 week
[9] = biological target: T1, Recombinant human VEGFA (Sino …); assay: indirect ELISA on coated human VEGF; stability sample, 5°C, 0 week
[10] = biological target: T1, Recombinant human VEGFA (Sino …); assay: indirect ELISA on coated human VEGF; stability sample, 5°C, 2 week
[11] = biological target: T1, Recombinant human VEGFA (Sino …); assay: indirect ELISA on coated human VEGF; stability sample, 5°C, 4 week
[12] = biological target: T2, Recombinant human PD-1 (prepared by …); assay: BLI (Octet RED96e), antibody captured at 5 µg/mL, PD-1 at 210 and 70 nM
[13] = biological target: T1, Recombinant human VEGFA (Sino …); assay: BLI (Octet RED96e), antibody captured at 5 µg/mL, VEGFA at 50 and 25 nM
[14] = biological target: T2, Recombinant human PD-1 (prepared by …); assay: indirect ELISA on coated human PD-1, relative to TAB001 (JS001) control
[15] = biological target: T2, Recombinant human PD-1 (prepared by …); assay: indirect ELISA on coated human PD-1; sample in human serum, 37°C, 0 week
[16] = biological target: T2, Recombinant human PD-1 (prepared by …); assay: indirect ELISA on coated human PD-1; sample in human serum, 37°C, 2 week
[17] = biological target: T2, Recombinant human PD-1 (prepared by …); assay: indirect ELISA on coated human PD-1; sample in human serum, 37°C, 4 week
[18] = biological target: T1, Recombinant human VEGFA (Sino …); assay: indirect ELISA on coated human VEGF; sample in human serum, 37°C, 0 week
[19] = biological target: T1, Recombinant human VEGFA (Sino …); assay: indirect ELISA on coated human VEGF; sample in human serum, 37°C, 2 week
[20] = biological target: T1, Recombinant human VEGFA (Sino …); assay: indirect ELISA on coated human VEGF; sample in human serum, 37°C, 4 week
[21] = biological target: T1, Recombinant human VEGFA (Sino …); assay: competitive ELISA against VEGFR2 on coated VEGFA, relative to Avastin control
[22] = biological target: T2, Recombinant human PD-1 (prepared by …); assay: competitive ELISA, PD-1 coated, competitor Biotin-PD-L1 hFc at 4.0 µg/mL (FIG. 9a)
[23] = biological target: T1, Recombinant human VEGFA (Sino …); assay: competitive ELISA, VEGFA coated, competitor biotinylated VEGFR2 at 0.3 µg/mL (FIG. 8a)
[24] = biological target: T2, Recombinant human PD-1 (prepared by …); assay: competitive ELISA against PD-L1 hFc on coated PD-1, relative to TAB001 (JS001) control
[25] = biological target: T2, Recombinant human PD-1 (prepared by …); assay: indirect ELISA, human PD-1 coated at 0.3 µg/mL (FIG. 6b)
[26] = biological target: T1, Recombinant human VEGFA (Sino …); assay: indirect ELISA, human VEGFA coated at 0.5 µg/mL (FIG. 7b)
[27] = biological target: T2, Recombinant human PD-1 (prepared by …); assay: competitive ELISA, PD-1 coated, competitor Biotin-PD-L1 hFc at 4.0 µg/mL (FIG. 9b)
[28] = biological target: T1, Recombinant human VEGFA (Sino …); assay: competitive ELISA, VEGFA coated, competitor biotinylated VEGFR2 at 0.3 µg/mL (FIG. 8b)
[29] = biological target: T1, Recombinant human VEGFA (Sino …); assay: BLI (Octet), antibody captured at 5 µg/mL, VEGFA at 25 and 12.5 nM

| IC50, VEGFA-induced proliferation of HUVEC cells [1] [nM] | EC50, PD-1/PD-L1 luciferase reporter gene system (Jurkat PD-1 / CHO PD-L1) [2] [nM] | Kd [3] [nM] | Relative binding activity (%) [6] [%] | Binding activity (%), PD-1 end [7] [%] | Binding activity (%), PD-1 end [8] [%] | Binding activity (%), VEGF end [9] [%] | Binding activity (%), VEGF end [10] [%] | Binding activity (%), VEGF end [11] [%] | Kd [12] [nM] | koff [12] [s⁻¹] | kon [12] [M⁻¹ s⁻¹] | Kd [13] [nM] | koff [13] [s⁻¹] | kon [13] [M⁻¹ s⁻¹] | Relative binding activity (%) [14] [%] | Binding activity (%), PD-1 end [15] [%] | Binding activity (%), PD-1 end [16] [%] | Relative binding activity (%) [21] [%] | Relative binding activity (%) [24] [%] | Binder | other results |
| --- | --- | --- | --- | --- | --- | --- | --- | --- | --- | --- | --- | --- | --- | --- | --- | --- | --- | --- | --- | --- | --- |
| 81.1 | 11.9 | < 0.5 | 175 | 105 | 97 | 99 | 104 | 81 | 1.73 | 7.73e-05 | 44800 | < 0.0186 | < 1e-05 | 538000 | 52 | 121 | 95 | 97 | 46 | Bispecific antibody molecule 23 (bispecific antibody, human IgG4 S228P, kappa, expressed in CHO-K1; also called Antibody 23; antibody 23 (IgG4)) light: DVVMTQSPLSLPVTLGQPASISCRSSQSIVHSNGNTYLEWYLQKPGQSPQLLIYKVSNRFSGVPDRFSGSGSGTDFTLKISRVEAEDVGVYYCFQGSHVPLTFGQGTKLEIKRTVAAPSVFIFPPSDEQLKSGTASVVCLLNNFYPREAKVQWKVDNALQSGNSQESVTEQDSKDSTYSLSSTLTLSKADYEKHKVYACEVTHQGLSSPVTKSFNRGEC heavy: not shown | EC50 [4]: 6.93 nM; EC50 [5]: 2.05 nM; Binding activity (%), PD-1 end [17]: 82%; Binding activity (%), VEGF end [18]: 98%; Binding activity (%), VEGF end [19]: 96%; Binding activity (%), VEGF end [20]: 79%; IC50 [22]: 293 nM; IC50 [23]: 679 nM |
| 104 | 16.9 | < 0.5 | 53 | 95 | 107 | 97 | 92 | 104 | 0.864 | 5.57e-05 | 64400 | 0.0521 | 4.24e-05 | 815000 | 77 | 93 | 86 | 85 | 86 | Bispecific antibody molecule 27 (bispecific antibody, human IgG4 S228P, kappa, Anti-PD-1 IgG4 (JS001) with the anti-VEGF VHH inserted between CH1 and the hinge of each heavy chain; also called Antibody 27; antibody 27 (IgG4)) light: DVVMTQSPLSLPVTLGQPASISCRSSQSIVHSNGNTYLEWYLQKPGQSPQLLIYKVSNRFSGVPDRFSGSGSGTDFTLKISRVEAEDVGVYYCFQGSHVPLTFGQGTKLEIKRTVAAPSVFIFPPSDEQLKSGTASVVCLLNNFYPREAKVQWKVDNALQSGNSQESVTEQDSKDSTYSLSSTLTLSKADYEKHKVYACEVTHQGLSSPVTKSFNRGEC heavy: not shown | EC50 [25]: 23.8 nM; EC50 [26]: 6.62 nM; Binding activity (%), PD-1 end [17]: 83%; Binding activity (%), VEGF end [18]: 101%; Binding activity (%), VEGF end [19]: 86%; Binding activity (%), VEGF end [20]: 78%; IC50 [27]: 297 nM; IC50 [28]: 3560 nM |
| 88 | 8.17 | < 0.5 | 27 | 94 | 86 | 100 | 85 | 102 | 1.21 | 9.38e-05 | 77600 | 0.191 | 7.92e-05 | 414000 | 25 | 106 | 63 | 61 | 55 | Bispecific antibody molecule 24 (bispecific antibody, human IgG4 S228P, kappa, Anti-PD-1 IgG4 (JS001) with the anti-VEGF VHH at the C-terminus of each heavy chain; also called Antibody 24; antibody 24 (IgG4)) light: DVVMTQSPLSLPVTLGQPASISCRSSQSIVHSNGNTYLEWYLQKPGQSPQLLIYKVSNRFSGVPDRFSGSGSGTDFTLKISRVEAEDVGVYYCFQGSHVPLTFGQGTKLEIKRTVAAPSVFIFPPSDEQLKSGTASVVCLLNNFYPREAKVQWKVDNALQSGNSQESVTEQDSKDSTYSLSSTLTLSKADYEKHKVYACEVTHQGLSSPVTKSFNRGEC heavy: not shown | EC50 [4]: 14.6 nM; EC50 [5]: 13.2 nM; Binding activity (%), PD-1 end [17]: 89%; Binding activity (%), VEGF end [18]: 104%; Binding activity (%), VEGF end [19]: 81%; Binding activity (%), VEGF end [20]: 95%; IC50 [22]: 243 nM; IC50 [23]: 1080 nM |
| 150 | 26.1 | < 0.5 | 57 | – | – | – | – | – | 1.67 | 5.96e-05 | 35800 | – | – | – | 31 | – | – | 163 | 45 | Bispecific antibody molecule 28 (bispecific antibody, human IgG4 S228P, kappa, Anti-PD-1 IgG4 (JS001) with the anti-VEGF VHH at the N-terminus of each light chain; also called Antibody 28; antibody 28 (IgG4)) light: EVQLVESGGGLVQPGGSLRLSCAISGFSLAATDIDWVRQAPGKGLEWVARIFSPSDFTDYADSVKGRFTISADTSKNTVYLQMNSLRAEDTAVYYCGRPDTYAYNIFLDTPTYNALHYRGQGTLVTVSSGGGGSGGGGSGGGGSDVVMTQSPLSLPVTLGQPASISCRSSQSIVHSNGNTYLEWYLQKPGQSPQLLIYKVSNRFSGVPDRFSGSGSGTDFTLKISRVEAEDVGVYYCFQGSHVPLTFGQGTKLEIKRTVAAPSVFIFPPSDEQLKSGTASVVCLLNNFYPREAKVQWKVDNALQSGNSQESVTEQDSKDSTYSLSSTLTLSKADYEKHKVYACEVTHQGLSSPVTKSFNRGEC heavy: not shown | EC50 [25]: 59.5 nM; EC50 [26]: 6.17 nM; Kd [29]: 0.0147 nM; koff [29]: 1.88e-05 s⁻¹; kon [29]: 1.28e+06 M⁻¹ s⁻¹; IC50 [27]: 573 nM; IC50 [28]: 1860 nM |
